Test results: publication PMC6980832, “Crystal structures of Triosephosphate Isomerases from Taenia solium and Schistosoma mansoni provide insights for vaccine rationale and drug design against helminth parasites” (PLoS Neglected Tropical Diseases, 2020)

B1: TsTPI (Taenia solium) (protein)
chain: MTRKLFVGGNWKMNGSYSHINTFFDTLQKADTDPNADIVIGVPACYLKYAQDKAPKGIKIAAENCYKVGSGAFTGEISTEMIKDCGCEWVILGHSERRHIFGESNELIGEKVKHALDSGLNVIPCIGELLSEREAGKTNDVCFAQMDAIAKNVPSKEAWDKVVIAYEPVWAIGTGKTATPAQAQEVHKVVRDWIRKHVDAGIADKVRILYGGSVTASNAKDLGTQPDVDGFLVGGASLKPDFITIINARR
notes: full length, codon-optimised synthetic gene, E. coli tpi-null strain, modified pET19; extra Gly-Pro-His before Met1; homodimer
B2: SmTPI (Schistosoma mansoni) (protein)
chain: MSGSRKFFVGGNWKMNGSRDDNDKLLKLLSEAHFDDNTEVLIAPPSVFLHEIRKSLKKEIHVAAQNCYKVSKGAFTGEISPAMIRDIGCDWVILGHSERRNIFGESDELIAEKVQHALAEGLSVIACIGETLSERESNKTEEVCVRQLKAIANKIKSADEWKRVVVAYEPVWAIGTGKVATPQQAQEVHNFLRKWFKTNAPNGVDEKIRIIYGGSVTAANCKELAQQHDVDGFLVGGASLKPEFTEICKARQR
notes: full length, codon-optimised synthetic gene, E. coli tpi-null strain, modified pET19; extra Gly-Pro-His before Met1; homodimer about 50 kDa

Assays:
purified protein [1] = substrate: O=CC(O)COP(=O)(O)O; assay: purified protein; assay type: biochemical, Taenia solium; conditions: 0.1 M TEA-HCl pH 7.4, 10 mM EDTA, 0.2 mM NADH, 21 °C, G3P 0 to 5 mM, G3P to DHAP direction
purified protein [2] = substrate: O=CC(O)COP(=O)(O)O; assay: purified protein; assay type: biochemical, Schistosoma mansoni; conditions: 0.1 M TEA-HCl pH 7.4, 10 mM EDTA, 0.2 mM NADH, 21 °C, G3P 0 to 5 mM, G3P to DHAP direction

| Protein | Km (purified protein [1]) | kcat (purified protein [1]) | kcat/Km (purified protein [1]) | Km (purified protein [2]) | kcat (purified protein [2]) | kcat/Km (purified protein [2]) |
| --- | --- | --- | --- | --- | --- | --- |
| B1 | 310 ± 30 µM | 993 ± 44 s⁻¹ | 3.15e+06 M⁻¹ s⁻¹ | – | – | – |
| B2 | – | – | – | 480 ± 70 µM | 2870 ± 138 s⁻¹ | 5.8e+06 M⁻¹ s⁻¹ |
